Article PMC6771557 (Diabetes, Obesity & Metabolism, 2019)

Columns and labels:
[1] = Safety: adverse events and hypoglycaemia; assay type: in vivo, Japanese people with type 2 diabetes mellitus; details: n=20
Experimental: Patient safety was monitored from adverse events (AEs) spontaneously reported by a patient or noted by an investigator, including hypoglycemic events. All AEs, regardless of seriousness or relationship to the study drug, were recorded in each patient’s records from the time the informed consent form was signed. Treatment emergent AEs (TEAEs) were defined as AEs that occurred or worsened or became serious during the treatment phase.
Evaluation of safety was based on the review of individual values and descriptive statistics. All safety analyses were performed in the safety population. Individual values were flagged for potentially clinically significant abnormalities (PCSAs) if appropriate.

[2] = system: postprandial plasma glucose (PPG); experiment: Postprandial plasma glucose after standardized breakfast, single s.c. dose, phase I crossover study; assay type: in vivo, Japanese people with type 2 diabetes mellitus; details: insulin glargine 5 U single s.c. dose; at 2 hours post-dose
Experimental: This was a phase I, single‐centre, randomized, open‐label, placebo‐controlled, four‐sequence, four‐period, four‐treatment crossover, single‐dose study.
Inclusion and exclusion criteria are provided in Appendix S1. […] There was a washout period of 7 to 14 days between dose administrations.
The secondary endpoints are described in Appendix S1.
The PD analyses were performed using the evaluable PD population. PPG–AUC0–2h was analysed using a linear mixed‐effects model with treatment group, sequence and treatment period as fixed effects, patient‐within‐sequence as a random effect, and baseline value as a covariate. The least squares (LS) mean differences were calculated between iGlarLixi groups and placebo, between the two iGlarLixi groups, and between iGlarLixi 5 U/5 μg and insulin glargine. The corresponding 95% confidence intervals and P values were calculated within the linear mixed‐effect model framework. P values < 0.05 were taken to indicate statistical significance. No adjustment for multiplicity was performed. […]
Secondary endpoints for PD included maximum postprandial plasma glucose (PPG) (PPG-Cmax), time of PPG-Cmax (PPG-tmax) and PPG-AUC0-5. In addition, serum insulin, serum C-peptide, and plasma glucagon concentrations were analyzed as secondary endpoints, and appropriate PD parameters such as AUCs were evaluated as applicable. […]

Substance: insulin glargine
- Patients with any TEAE ([1]; insulin glargine 5U single s.c. dose, up to 24 hours after injection): 0 n
- Patients with any TEAE leading to permanent treatment discontinuation ([1]; insulin glargine 5U): 0 n
- Patients with any severe TEAE ([1]; insulin glargine 5U): 0 n
- Patients with any treatment emergent SAE ([1]; insulin glargine 5U): 0 n
- time of peak of mean plasma glucose concentration after breakfast start [2]: approximately 1 hour
